Experimental data reported in the nanobody polyreactivity screen of Harvey et al. (2022).

assay: yeast display, Sf9 membrane polyspecificity reagent, FACS + sequencing; frameworks hold sequencing errors
Summary of the method: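 Genes from sorted yeast were amplified by colony PCR, read by MiSeq 2 × 250 sequencing and filtered on CDR length. These cells carried a synthetic nanobody library in Saccharomyces cerevisiae BJ5465 and were sorted by FACS into low and high (top ~1%) gates on anti-HA and streptavidin fluorescence. Polyreactivity is labelled according to the gate of origin.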

Sequence	polyreactivity (PSR sort gate)
QVQLVESGGGLVQAGGSLRLSCAASGSTFGINTMGWYRQAPGKERELVATISQRGTRTYYADSVKGRFTISRDNAKNTVYLQMNSLKPEDTAVYYCNKDVYLYYYTRRSGRLDYWGQGTQVTVSS	high polyreactivity
QVQLVESGGGLVQAGGSLRLSCAASGSTFGIYAMGWYRQAPGKERELVAAISWRGGRTYYADSVKGRFTISRDNAKNTVYLQMNSLKPEDTAVYYCAADYRYLWEGYDYWGQGTQVTVSS	low polyreactivity
QVQLVESGGGLVQAGGSLRLSCAASGSTFGKNAMAWYRQAPGKERELVAAITSSGGRTYYADSVKGRFTISRDNAKNTVYLQMNSLKPEDTAVYYCNSVTRRRSLGPWPVEYDYWGQGTQVTVSS	high polyreactivity
QVQLVESGGGLVQAGGSLRLSCAASGSTFGKNAMGWYRQAPGKERELVAAITSSGGRTYYADSVKGRFTISRDNAKNTVYLQMNSLKPEDTAVYYCNAVTRRRSLGPWPVEYDYWGQGTQVTVSS	high polyreactivity
QVQLVESGGGLVQAGGSLRLSCAASGSTFGKYAMGWSRPAPGKERELVAAITVNAGRTYYADSVKGRFTISRDNAKNTVYLQMNSLKPEDTAVYYCNADFFTIYDYWGQGTQVTVSS	high polyreactivity
QVQLVESGGGLVQAGGSLRLSCAASGSTFGKYAMGWYRQAPGKERELVAAISKSGGSTYYADSVKGRFTISRDNAKNTVYLQMNSLKPEDTAVYYCAADVTYGTKWAYDYWGQGTQVTVSS	high polyreactivity
QVQLVESGGGLVQAGGSLRLSCAASGSTFGKYAMGWYRQAPGKERELVATISWSGTSTYYADSVKGRFTISRDNAKNTVYLQMNSLKPEDTAVYYCAADSEGVGVKHIYDYWGQGTQVTVSS	low polyreactivity
QVQLVESGGGLVQAGGSLRLSCAASGSTFGKYAMGWYRQATGKERELVAAITNGGRTNYADSVKGRFTISRDNAMNTVYLQMNSMKPEDTAVYYCNKARYGTDDYDYWGQGTQVTVSS	low polyreactivity
QVQLVESGGGLVQAGGSLRLSCAASGSTFGKYTMGWYRQAPGKERELVAAISWSGGNTYYADSVKGRFTISRDNAKNTVYLQMNSLKPEDTAVYYCAAEREAYNTWFDYWGQGTQVTVSS	high polyreactivity
QVQLVESGGGLVQAGGSLRLSCAASGSTFGLNAMGWYRQAHGKERDVVAAITRSDITNYADSVKGRFTISRDNAKNTVYLQMNSLKPEDTAVYYCNKTPDRHRRYFGYGYWGQGTQVTVSS	low polyreactivity
QVQLVESGGGLVQAGGSLRLSCAASGSTFGLNAMGWYRQAPGKERELVAAITWSGASTYYADSVKGRFTISRDNAKNTVYLQMNSLKPEDTAVYYCAKDIPTDYKDVNYWGQGTQVTVSS	low polyreactivity
QVQLVESGGGLVQAGGSLRLSCAASGSTFGLYAMGWYRQAPGKEREFVAAITASGGRTYYADSVKGRFTISRDHAKNTVYLQMNSLKPEDTAVYYCNSRTSHYDKYGYWGQGTQVTVSS	high polyreactivity
QVQLVESGGGLVQAGGSLRLSCAASGSTFGLYAMGWYRQAPRKERELVAVIRWGSGRTYYADSVKGRFTISRDNAKNTVYLQMNSLKPEDTAVYYCAKDRSYGSSSKRFGYWGQGTQVTVSS	high polyreactivity
QVQLVESGGGLVQAGGSLRLSCAASGSTFGLYAMGWYRQEPGKERELVAAITWRASSTYYADSVKGRFTISRDNAKNTVYLQMNSLKPEDTAVYYCAATWYSRFSRGDYDYWGQGTLVTVSS	high polyreactivity
QVQLVESGGGLVQAGGSLRLSCAASGSTFGLYTMGWYRQAPGKARELVAVINRSGGSTYYADSVKGRFTISRDNAKNTVYLQMNSLKPEDTAVYYCAAQRAVAGGRLDYWGQGTQVTVSS	high polyreactivity
QVQLVESGGGLVQAGGSLRLSCAASGSTFGNNAKGWYRQAPGKERELVAAITFRGTSTYADSVKGRFTISRDYAKNTVYLQMNSLKPEDTAVYYCAAVVYFVSYRFYYWGQGTQVTVSS	high polyreactivity
QVQLVESGGGLVQAGGSLRLSCAASGSTFGNNAMGWYRQAPGKERELVASINWNGGSTYYADSVKGRFTISRDNAKNTVYLQMNSLKPEDTAVYYCADDRVWAYWTYGYWGQGTQVTVSS	low polyreactivity
QVQLVESGGGLVQAGGSLRLSCAASGSTFGNYAMAWYRQAPGKERELVATISRSGGSTYYADSVKGRFTISRDNAKNTVYLLMNSLKPEDTAVYYCNRRYYTRKPDYNSWGQGTQVTVSS	high polyreactivity
QVQLVESGGGLVQAGGSLRLSCAASGSTFGNYDIGWYRQAPGKERELVAAISFSGGSTYYADSVKGRFTISRDNAKNTVYLQMNSLIPEDTAVYYCAARSNYRMDYWGQGTQVTVSS	high polyreactivity
QVQLVESGGGLVQAGGSLRLSCAASGSTFGPNAMGWYRQAPGKERELVAAITDSGVSTYYAVSVKGRFTISRDNAKYTVYLQMNSLKPEDTAVYYCATDWYLHRFDYWGQGTQVTVSS	low polyreactivity
QVQLVESGGGLVQAGGSLRLSCAASGSTFGPNAMGWYRQAPGKERELVATISSGGSTYYADSVKGRFTISRDNAKNTVYLQMNSLKPEDTAVYYCAVRTIIRPVDLYDYWGQGTQVTVSS	low polyreactivity

Sequence	polyreactivity (PSR sort gate)
QVQLVESGGGLVQAGGSLRLSCAASGSTFGPNGMGWYRHAPGKERELVARIDRIGGGTYYADSVKGRFTISRDNANNTVYLQMNSLKPEDTAVYYCAAYGPSPFSQGYAKGDYWGQGTQVTVSS	low polyreactivity
QVQLVESGGGLVQAGGSLRLSCAASGSTFGPYAMGWYRQAPGKERELVAAIDKSGGSTYYADSVKGRFTISRDNAKNTVYLQMNSLKPEDTAVYYCAVEKRYPRRRYDYWGQGTQVTVSS	low polyreactivity
QVQLVESGGGLVQAGGSLRLSCAASGSTFGPYARGWSRQAPGKERELVSTITRNGGSTYYADSVKGRFTISRDNAKNTVYLQMNSLKPEDTAVYYCNAEGRWSSFTQRMDYWGQGTQVTVSS	low polyreactivity
QVQLVESGGGLVQAGGSLRLSCAASGSTFGPYTMGWYRQAPGKERELVAAISYSGASTYYADSVKGRFTISRDNAKNTVYLQMNSLKPEDTAVYYCNTVYRYTRARYPYDYWGQGTQVTVSS	high polyreactivity
QVQLVESGGGLVQAGGSLRLSCAASGSTFGQYAMGWYRQAPGKERELVAAISSGGRTNYADSVKGRFTISRDNAKNTVYLQMNSLKPEDTAVYYCAARYYFPFRRFRRMDYWGQGTQVTVSS	high polyreactivity
QVQLVESGGGLVQAGGSLRLSCAASGSTFGQYAMGWYRQAPGKERELVATISSGSTYYADSVKGRFTISRDNAKNTVYLQMNSLKPEDTAVYYCAATRRWYKSKKTFYYWGQGTQVTVSS	high polyreactivity
QVQLVESGGGLVQAGGSLRLSCAASGSTFGRNAMGWYRQAPGKDRELVAAINSGGGTYYADSVKGRFTISRDNAKNTVYLQMNSLKPEDTAVYDCAAARGYGNYVYWGQGTQVTVSS	low polyreactivity
QVQLVESGGGLVQAGGSLRLSCAASGSTFGRNAMGWYRQAPGKERELVAAISWRSTPTYYADSVKGRFTISRDNAKNTVYLQMNSLKPEDTAVYYCAVYYYYPSTNGYHYDYWGHGTQVTVSS	high polyreactivity
QVQLVESGGGLVQAGGSLRLSCAASGSTFGRNAMGWYRQAPGKERELVASITSRGTSTYADSVKGRFTISRDNAKNTVYLQMNSLKPEDTAVYYCAAGVISYRRRSYYYWGQGTQVTVSS	high polyreactivity
QVQLVESGGGLVQAGGSLRLSCAASGSTFGRYAMGWSRQAPGKERELVAAITTSGRRTRYADSVKGRFTISRDNAKNTVYLQMNSLKPEDTAVYYCAASGAQGPDYDYWGQGTQVTVSS	low polyreactivity
QVQLVESGGGLVQAGGSLRLSCAASGSTFGRYAMGWYRQAPGKERELVAAITSGSSTNYADSVKGRFTISRDNAKNTVYLPMNSLKPEDTAVYYCAAPKSRQSTYYYWGQGTQVTVSS	high polyreactivity
QVQLVESGGGLVQAGGSLRLSCAASGSTFGRYTMGWYRQAPGKERQLVAAISSSGGGTYYADSVKGRLTISRDNAKNTVYLQMNSLKPEDTAVYYCAALGSRRYTRYGLTGFDYWGQGTQVTVSS	high polyreactivity
QVQLVESGGGLVQAGGSLRLSCAASGSTFGRYVMGLYRQAPGQERELVAAISKNAGSTYYADSVKGRFTISRDNAKNTVYLQMNSLKPEDTAVYYCAADWRTKGYDSLGQGTQVTVSS	high polyreactivity
QVQLVESGGGLVQAGGSLRLSCAASGSTFGRYVMGWYRQAPGKERELVAAISGSGGSTYYADSVKGRFTISRDNAKNTVYLQMNSLKPEDTAVYYCAARVAHYEYYWGQGTQVTVSS	high polyreactivity
QVQLVESGGGLVQAGGSLRLSCAASGSTFGRYVMGWYRQAPGKERELVAAISKNAGSTYYADSVKGRFTISRDNAKNTVYLQMNSLKPEDTAVYYCNAQSFREYGYWGQGTQVTVSS	high polyreactivity
QVQLVESGGGLVQAGGSLRLSCAASGSTFGSNALGWYREAPAKERELVAAIDANCGSTYYADSVKGRFTISRDNAKNTVYLQMHSQKQEDTAVYYCAAAGYCYYYVPNDYWGQGTQVTVSS	low polyreactivity
QVQLVESGGGLVQAGGSLRLSCAASGSTFGSNAMGGYRKAPGKERELVAAISTSGGSTYYADSVKGRFTISRDNAKNTVYLQMNSLKPEDTAVYYCNVDPAYSITYKGDYWGQGTQVSVSS	low polyreactivity
QVQLVESGGGLVQAGGSLRLSCAASGSTFGSNAMGWSRQAPGKERELVAAITYSGGRTYYADSVQGRFTISRDNAKNTVYLQMNSLKPEDPAVYYCAATFGFFYYQYDYWGQGTQVTVSS	low polyreactivity
QVQLVESGGGLVQAGGSLRLSCAASGSTFGSNAMGWYRQAPGKERELVAAIRGIVGSTYYADSVKGRFTISRDNAKNTVYLQMNSLKPEDTAVYYCNKAEVSTYYHTRSTYGGYDYWGQGTQVTVSS	low polyreactivity
QVQLVESGGGLVQAGGSLRLSCAASGSTFGSYAMGWHRQAPGKERELVASITYSGDSSNYSDSVKGRFTLSRDNAKNTVYLQMNSLKPEDTAVYYCKARAVMTQYIQKRYDYWGQGTQVTVSS	low polyreactivity
